Like-named read-outs stand apart in the source and are kept apart here.
What was measured:
[1] = target: T1, ActRIIA and ActRIIB (on TGFB/SMAD SBE Reporter HEK293 cells) (human); test: cell-based or functional assay
human ActRIIA [2] = target: T2, human ActRIIA (human, UniProt P27037 20-135, limits assumed); test: MSD-SET
T2 construct: antigen in MSD-SET; also called ACVR2A; ActR2A

human ActRIIA [3] = target: T2, human ActRIIA; test: MSD-SET; remark: listed apart in the source
[4] = target: T1, ActRIIA and ActRIIB (on TGFB/SMAD SBE …); test: cell-based or functional assay; remark: listed apart in the source
human ActRIIB [5] = target: T3, human ActRIIB (human, UniProt Q13705 19-137, limits assumed); test: MSD-SET; human ActRIIB; full-length IgG (Table 4B)
T3 construct: antigen in MSD-SET; also called ACVR2B; ActR2B
T3 sequence: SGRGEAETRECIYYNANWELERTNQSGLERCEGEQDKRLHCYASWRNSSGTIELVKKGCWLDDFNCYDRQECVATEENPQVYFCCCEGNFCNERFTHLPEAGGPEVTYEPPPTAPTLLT

[6] = target: T1, ActRIIA and ActRIIB (on TGFB/SMAD SBE …); test: cell-based or functional assay; remark: listed apart in the source
human ActRIIA [7] = target: T2, human ActRIIA; test: MSD-SET; remark: listed apart in the source
human ActRIIA [8] = target: T2, human ActRIIA; test: MSD-SET; remark: listed apart in the source
human ActRIIB [9] = target: T3, human ActRIIB; test: MSD-SET; human ActRIIB; full antibody, separate cross-reactivity study (Table 6A)
human ActRIIB [10] = target: T3, human ActRIIB; test: MSD-SET; Fab, not IgG
human ActRIIB [11] = target: T3, human ActRIIB; test: MSD-SET, Fab KD over IgG KD
human ActRIIB [12] = target: T3, human ActRIIB; test: MSD-SET
mouse ActRIIA = mouse ActRIIA (mouse, UniProt P27038 20-135, limits assumed); test: MSD-SET
Pig ActRIIA = Pig ActRIIA (pig, UniProt F1S0H6 20-135); test: MSD-SET
human ActRIIB [13] = target: T3, human ActRIIB; test: MSD-SET; remark: listed apart in the source
Dog ActRIIA = Dog ActRIIA (dog, UniProt A0A8I3MYH0 20-135); test: MSD-SET
human ActRIIB [14] = target: T3, human ActRIIB; test: MSD-SET, preliminary

T2 sequence (P27037 20-135 limits assumed): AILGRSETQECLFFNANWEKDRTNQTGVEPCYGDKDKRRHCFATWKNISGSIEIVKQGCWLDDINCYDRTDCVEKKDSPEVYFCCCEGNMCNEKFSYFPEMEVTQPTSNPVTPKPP
Chain of mouse ActRIIA (P27038 20-135 limits assumed): as the sequence (P27037 20-135 limits assumed) above, with K20R, V73I counted along it

Binder | IC50, Activin SMAD RGA [1] [nM] | IC50, Myostatin SMAD RGA [1] [nM] | IC90, Activin SMAD RGA [1] [nM] | IC90, Myostatin SMAD RGA [1] [nM] | Kd (human ActRIIA [3]) [nM] | IC50, Activin SMAD RGA [4] [nM] | IC50, Myostatin SMAD RGA [4] [nM] | Kd (human ActRIIB [5]) [pM] | Kd (human ActRIIA [7]) [pM] | IC50 fold difference (Fab:IgG), Activin SMAD RGA [4] [fold] | IC50 fold difference (Fab:IgG), Myostatin SMAD RGA [4] [fold] | Kd (human ActRIIB [10]) [nM] | further results
Antibody Riaba (antibody, V domains shown, full-length IgG) VH: QVQLVQSGAEVKKPGASVKVSCKASGYTFTSSYINWVRQAPGQGLEWMGTINAVSGSTSYAQKFQGRVTMTRDTSISTAYMELSRLRSDDTAVYYCARGGWFDYWGQGTLVTVSS VL: QSALTQPASVSGSPGQSITISCTGTSSDVGSYNYVNWYQQHPGKAPKLMIYGVSKRDSGVSNRFSGSKSGNTASLTISGLQAEDEADYYCGTFAGGKYYGVFGGGTKLTVL | 0.134 | 0.263 | 2.14 | 2.18 | 0.014 | 0.14 | 0.33 | 4 | 14 | – | – | – | Fold Difference to bimagrumab (human ActRIIA [2]): 10 fold; Kd (human ActRIIA [2]): 0.014 nM; IC50 [nM] (assay not given) [6]: 0.0371 nM; IC50 fold difference to bimagrumab (assay not given) [6]: 7.96 fold; IC90 [nM] (assay not given) [6]: 1.6 nM; IC90 fold difference to bimagrumab (assay not given) [6]: 4.11 fold
Antibody Wurschdsalat (antibody, V domains shown, full-length IgG) VH: QVQLVQSGAEVKKPGASVKVSCKASGYTFTSSYINWVRQAPGQGLEWMGTINAVSGSTSYAQKFQGRVTMTRDESISTAYMELSRLRSDDTAVYYCARGGWFDYWGQGTLVTVSS VL: QSALTQPASVSGSPGQSITISCTGTSSDVGSYNYVNWYQQHPGKAPKLMIYGVSKRESGVSNRFSGSKSGNTASLTISGLQAEDEADYYCGTFAGGKYYGVFGGGTKLTVL | 0.266 | 0.4 | 1.9 | 3.89 | 0.005 | 0.29 | 0.33 | 6 | 5 | – | – | – | Kd (human ActRIIA [8]): 0.0218 nM; Kd (human ActRIIB [9]): 4.4 pM
Hefaknöpfla Fab (Fab, V domains shown, Fab) VH: QVQLVQSGAEVKKPGASVKVSCKASGYTFTSSYINWVRQAPGQGLEWMGTINAVSGSTSYAQKFQGRVTMTRDTSISTAYMELSRLRSDDTAVYYCARGGWFDYWGQGTLVTVSS VL: QSALTQPASVSGSPGQSITISCTGTSSDVGSKNYVNWYQQHPGKAPKLMIYGVSKRESGVSNRFSGSKSGNTASLTISGLQAEDEADYYCGTFAGGKYYGVFGGGTKLTVL | – | – | – | – | 0.091 | 4.06 | 3.7 | – | – | 31.5 | 14.2 | 0.228 | –
Riaba Fab (Fab, V domains shown, Fab) VH: QVQLVQSGAEVKKPGASVKVSCKASGYTFTSSYINWVRQAPGQGLEWMGTINAVSGSTSYAQKFQGRVTMTRDTSISTAYMELSRLRSDDTAVYYCARGGWFDYWGQGTLVTVSS VL: QSALTQPASVSGSPGQSITISCTGTSSDVGSYNYVNWYQQHPGKAPKLMIYGVSKRDSGVSNRFSGSKSGNTASLTISGLQAEDEADYYCGTFAGGKYYGVFGGGTKLTVL | – | – | – | – | – | 27.9 | 64.6 | – | – | 196 | 199 | 1.57 | Fold difference (Fab:IgG) (human ActRIIB [11]): 369 fold
Schwardamaga Fab (Fab, V domains shown, Fab) VH: QVQLVQSGAEVKKPGSSVKVSCKASGYTFTSSYINWVRQAPGQGLEWMGTINAVSGSTSYAQKFQGRVTITADTSTSTAYMELSSLRSEDTAVYYCARGGWFDYWGQGTLVTVSS VL: QSALTQPRSVSGSPGQSVTISCTGTSSDVGSANYVNWYQQHPGKAPKPMIYGVSRRPSGVPDRFSGSKSGNTASLTISGLQAEDEADYYCGTFAGGKYYGVFGGGTKLTVL | – | – | – | – | – | – | – | – | – | – | – | – | Kd (human ActRIIB [12]): 0.0138 nM; Kd (mouse ActRIIA): 0.039 nM; Kd (Pig ActRIIA): 0.029 nM; Kd (human ActRIIB [13]): 0.01 nM; Kd (Dog ActRIIA): 0.044 nM; Kd (human ActRIIB [14]): 0.0726 nM

From patent US20250243286A1 (SIXPEAKS BIO, published 2025)
